Source: publication PMC2922993

Molecular target: T1, BRAF-HDAC Complex 80 (BHC80)-PHD finger, Q96BD5
T1 chain: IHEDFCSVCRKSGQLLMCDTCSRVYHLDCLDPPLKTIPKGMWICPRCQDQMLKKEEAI
Assay: ITC

Kd: 19.6 µM
B1: unmodified H3 peptide (peptide)
chain: ARTKQTARKSTG
modifications: not checked
